According to patent US20140206607A1 (INDIANA UNIVERSITY RESEARCH AND TECHNOLOGY, published 2014):
Numbered stars: 1 amine (or outer) side, 2 acyl side, 3 side chain; on linkers, the order of the positions; unused ones are H or OH. Square brackets hold non-standard residues; d marks the D form. Primed or numbered codes have the meaning given here. Side chains are listed from the residue outwards. Ends that are not written are not given here. * marks the point of attachment. 40K‑TE PEG = 40 kDa PEG covalently bound via thioether, formed by reaction of the free thiol of the peptide (Cys side chain) with an iodoacetic-functionalized PEG; 20K‑TE PEG″ = 20 kDa PEG attached via a thioether, formed by reacting the free thiol of the peptide with an iodoacetic-functionalized PEG; 12K‑ME PEG = 12 kDa PEG bound via maleimido-thioether; γGlu = O=C(O)[C@H](CCC(=O)[*:2])N[*:1]; Palmitoyl = CCCCCCCCCCCCCCCC(=O)*; Aib = CC(C)(N)C(=O)O

T1: GIP receptor (UniProt P48546 22-466)
T1 sequence (looked up): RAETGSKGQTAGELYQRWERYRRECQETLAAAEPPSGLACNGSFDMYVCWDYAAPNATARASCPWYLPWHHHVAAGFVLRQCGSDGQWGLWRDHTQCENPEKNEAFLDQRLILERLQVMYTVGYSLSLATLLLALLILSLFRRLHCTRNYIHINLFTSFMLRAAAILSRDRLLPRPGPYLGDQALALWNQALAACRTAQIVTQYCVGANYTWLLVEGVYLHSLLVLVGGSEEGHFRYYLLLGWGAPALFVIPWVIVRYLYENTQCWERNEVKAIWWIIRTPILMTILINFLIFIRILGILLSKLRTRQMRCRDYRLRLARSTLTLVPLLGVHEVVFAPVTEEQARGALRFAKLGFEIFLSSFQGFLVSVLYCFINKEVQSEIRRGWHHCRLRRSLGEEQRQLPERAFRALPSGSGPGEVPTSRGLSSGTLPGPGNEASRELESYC


What was measured:
Test in all cases: cell-based or functional assay
GIP receptor = molecular target: T1, GIP receptor
GLP-1 receptor = GLP-1 receptor (UniProt P43220 24-463, limits assumed)
glucagon receptor = glucagon receptor (UniProt P47871 26-477, limits assumed)
Sequence of glucagon receptor (P47871 26-477 limits assumed): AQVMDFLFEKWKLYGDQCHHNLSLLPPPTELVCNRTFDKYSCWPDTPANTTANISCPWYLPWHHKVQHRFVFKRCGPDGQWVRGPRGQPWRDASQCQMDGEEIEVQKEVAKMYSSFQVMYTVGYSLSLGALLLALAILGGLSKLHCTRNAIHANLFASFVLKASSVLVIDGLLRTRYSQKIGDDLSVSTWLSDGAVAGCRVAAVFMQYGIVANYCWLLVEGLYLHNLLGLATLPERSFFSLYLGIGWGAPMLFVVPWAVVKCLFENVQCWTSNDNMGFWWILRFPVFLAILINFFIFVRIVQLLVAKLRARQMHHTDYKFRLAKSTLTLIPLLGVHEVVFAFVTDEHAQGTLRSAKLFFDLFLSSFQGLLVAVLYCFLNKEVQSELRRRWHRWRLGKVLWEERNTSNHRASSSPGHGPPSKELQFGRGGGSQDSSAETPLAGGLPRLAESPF

Binder | EC50 (nM) at GIP receptor (GIP receptor) [nM] | EC50 (nM) at GLP-1 receptor (GLP-1 receptor) [nM] | EC50 (nM) at glucagon receptor (glucagon receptor) [nM]
H[Aib]QGTFTSDKSKYLDERRA[Aib]DFVQWLMNT-NH2 (not fully specified (residue 10); printed as HaibQGTFTSDK(C16 acyl)SKYLDERRAaibDFVQWLMNT-amide) [peptide of SEQ ID NO: 59] | 7.48 | 0.01 | 0.051
H[Aib]QGTFTSDYSKYLDEKRA[Aib]EFVC(40K‑TE PEG)WLLDGGPSSGAPPPS-NH2 [peptide of SEQ ID NO: 47] | – | 0.052 | 0.591
H[dS]QGTFTSDK([γGlu-adamantylacetyl])SKYLDERAAQDFVQWLLDT-NH2 [peptide of SEQ ID NO: 48] | – | 0.039 | 0.026
H[dS]QGTFTSDK(benzoylpropionyl)SKYLDERAAQDFVQWLLDGGPSSGAPPPS-NH2 [peptide of SEQ ID NO: 49] | – | 0.01 | 0.063
H[Aib]QGTFTSDYSKYLDEKRA[Aib]EFVC(40K‑TE PEG)WLL[Aib]T-NH2 [peptide of SEQ ID NO: 41] | – | 0.074 | 0.309
H[dS]QGTFTSDK(EDTA amide)SKYLDERAAQDFVQWLLDGGPSSGAPPPS-NH2 [peptide of SEQ ID NO: 55] | – | 0.108 | 4.34
H[Aib]QGTFTSDYSKYLD[Aib]KRA[Aib]EFVC(40K‑TE PEG)WLLDGGPSSGAPPPS-NH2 [peptide of SEQ ID NO: 46] | – | 0.136 | 0.227
H[Aib]QGTFTSDYSKYLD[Aib]KRAKEFVQWLLDTC(40K‑TE PEG)-NH2 [peptide of SEQ ID NO: 40] | – | 0.653 | 1.19
H[Aib]QGTFTSDYSKYLDEKRA[Aib]DFVC(40K‑TE PEG)WLLDT-NH2 [peptide of SEQ ID NO: 54] | – | 0.097 | 0.939
H[Aib]QGTFTSDYSKYLDEK[Aib]AKEFVC(40K‑TE PEG)WLLDT-NH2 [peptide of SEQ ID NO: 52] | – | 0.054 | 4.5
H[Aib]QGTFTSDYSKYLDEKRA[Aib]EFV[Aib]WLLC(40K‑TE PEG)T-NH2 [peptide of SEQ ID NO: 42] | – | 0.117 | 1.01
H[Aib]QGTFTSDYSKYLDEKRA[Aib]EFVC(40K‑TE PEG)WLLDE-NH2 [peptide of SEQ ID NO: 16] | 465 | 0.487 | 0.563
H[dA]QGTFTSDK([γGlu-Palmitoyl])SKYLDERAAQDFVQWLLDT-NH2 (N-terminus assumed; SMILES CCCCCCCCCCCCCCCC(=O)N[C@@H](CCC(=O)NCCCC[C@H](NC(=O)[C@H](CC(=O)O)NC(=O)[C@H](CO)NC(=O)[C@@H](NC(=O)[C@H](Cc1ccccc1)NC(=O)[C@@H](NC(=O)CNC(=O)[C@H](CCC(N)=O)NC(=O)[C@@H](C)NC(=O)[C@@H](N)Cc1c[nH]cn1)[C@@H](C)O)[C@@H](C)O)C(=O)N[C@@H](CO)C(=O)N[C@@H](CCCCN)C(=O)N[C@@H](Cc1ccc(O)cc1)C(=O)N[C@@H](CC(C)C)C(=O)N[C@@H](CC(=O)O)C(=O)N[C@@H](CCC(=O)O)C(=O)N[C@@H](CCCNC(=N)N)C(=O)N[C@@H](C)C(=O)N[C@@H](C)C(=O)N[C@@H](CCC(N)=O)C(=O)N[C@@H](CC(=O)O)C(=O)N[C@@H](Cc1ccccc1)C(=O)N[C@H](C(=O)N[C@@H](CCC(N)=O)C(=O)N[C@@H](Cc1c[nH]c2ccccc12)C(=O)N[C@@H](CC(C)C)C(=O)N[C@@H](CC(C)C)C(=O)N[C@@H](CC(=O)O)C(=O)N[C@H](C(N)=O)[C@@H](C)O)C(C)C)C(=O)O) [peptide of SEQ ID NO: 56] | 1.64 | 0.02 | 0.006
H[Aib]QGTFTSDYSKYLDEKRA[Aib]EFVC(40K‑TE PEG)WLLDT-OH [peptide of SEQ ID NO: 45] | – | 1.44 | 0.651
H[Aib]QGTFTSDK(Palmitoyl)SKYLDSRRA[Aib]DFVQWLMNT-NH2 (N-terminus assumed; SMILES CCCCCCCCCCCCCCCC(=O)NCCCC[C@H](NC(=O)[C@H](CC(=O)O)NC(=O)[C@H](CO)NC(=O)[C@@H](NC(=O)[C@H](Cc1ccccc1)NC(=O)[C@@H](NC(=O)CNC(=O)[C@H](CCC(N)=O)NC(=O)C(C)(C)NC(=O)[C@@H](N)Cc1c[nH]cn1)[C@@H](C)O)[C@@H](C)O)C(=O)N[C@@H](CO)C(=O)N[C@@H](CCCCN)C(=O)N[C@@H](Cc1ccc(O)cc1)C(=O)N[C@@H](CC(C)C)C(=O)N[C@@H](CC(=O)O)C(=O)N[C@@H](CO)C(=O)N[C@@H](CCCNC(=N)N)C(=O)N[C@@H](CCCNC(=N)N)C(=O)N[C@@H](C)C(=O)NC(C)(C)C(=O)N[C@@H](CC(=O)O)C(=O)N[C@@H](Cc1ccccc1)C(=O)N[C@H](C(=O)N[C@@H](CCC(N)=O)C(=O)N[C@@H](Cc1c[nH]c2ccccc12)C(=O)N[C@@H](CC(C)C)C(=O)N[C@@H](CCSC)C(=O)N[C@@H](CC(N)=O)C(=O)N[C@H](C(N)=O)[C@@H](C)O)C(C)C) [peptide of SEQ ID NO: 58] | 35.7 | 0.025 | 0.09
H[Aib]QGTFTSDYSKYLDEKRA[Aib]EFVC(40K‑TE PEG)WLLDT-NH2 [peptide of SEQ ID NO: 13] | – | 0.067 | 0.141
H[Aib]QGTFTSDYSKYLDEKRA[Aib]EFVC(40K‑TE PEG)WLL[Aib]GGPSSGAPPPS-NH2 [peptide of SEQ ID NO: 51] | – | 0.062 | 2.04
H[dS]QGTFTSDK([γGlu-Palmitoyl])SKYLDEQAAKEFIC(12K‑ME PEG)WLLDT-NH2 [peptide of SEQ ID NO: 43] | – | 0.011 | 0.02
H[dS]QGTFTSDK([γGlu-Palmitoyl])SKYLDEQAAKEFIC(20K‑TE PEG″)WLLDT-NH2 [peptide of SEQ ID NO: 44] | – | 0.017 | 0.023
H[Aib]QGTFTSDYSKYLD[Aib]KRA[Aib]EFVC(40K‑TE PEG)WLLDT-NH2 [peptide of SEQ ID NO: 38] | – | 0.31 | 0.141
H[Aib]QGTFTSDYSKYLD[Aib]KRAKEFVQWLLC(40K‑TE PEG)T-OH [peptide of SEQ ID NO: 39] | – | 1.28 | 0.852
